The EC50 is the concentration that produces a half-maximal response. Usually stoichiometry N stands for the number of molecules, sites or subunits per partner or assembly.

These results are taken from PMC9709071, “A stable, engineered TL1A ligand co-stimulates T cells via specific binding to DR3” (Scientific Reports, 2022).

The labels stand for the following.
T1: DcR3 (TNFRSF6B) (UniProt O95407 30-300)
T1 construct: soluble decoy receptor DcR3 (TNFRSF6B); the catalogue product is, as I recall, an Fc chimera; the SPR methods name capture by goat anti-human-Fc; also called decoy receptor DcR3; recombinant DcR3 protein
T1 sequence (looked up): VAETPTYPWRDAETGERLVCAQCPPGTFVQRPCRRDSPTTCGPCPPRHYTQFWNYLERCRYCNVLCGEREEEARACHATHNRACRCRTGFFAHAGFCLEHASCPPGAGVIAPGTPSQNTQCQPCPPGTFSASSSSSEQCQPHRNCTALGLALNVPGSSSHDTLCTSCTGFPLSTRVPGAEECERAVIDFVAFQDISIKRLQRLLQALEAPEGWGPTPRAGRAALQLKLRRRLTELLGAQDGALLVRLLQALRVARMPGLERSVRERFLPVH

B1: TL1W328.001 (K111A L123K M158Y Q167A S187L N207F) (Fc fusion, human)
chain: VYAPLRADGDKPRAHLTVVRQTPTQHFANQFPALHWEHEKGLAFTKNRMNYTNKFLLIPESGDYFIYSQVTFRGYTSECSEIRAAGRPNKPDSITVVITKVTDLYPEPTQLLMGTKSVCEVGSFWFQPIYLGAMFSLQEGDKLMVNVSDISLVDYTKEDKTFFGAFLLGGSGGSGGSVYAPLRADGDKPRAHLTVVRQTPTQHFANQFPALHWEHEKGLAFTKNRMNYTNKFLLIPESGDYFIYSQVTFRGYTSECSEIRAAGRPNKPDSITVVITKVTDLYPEPTQLLMGTKSVCEVGSFWFQPIYLGAMFSLQEGDKLMVNVSDISLVDYTKEDKTFFGAFLLGGSGGSGGSVYAPLRADGDKPRAHLTVVRQTPTQHFANQFPALHWEHEKGLAFTKNRMNYTNKFLLIPESGDYFIYSQVTFRGYTSECSEIRAAGRPNKPDSITVVITKVTDLYPEPTQLLMGTKSVCEVGSFWFQPIYLGAMFSLQEGDKLMVNVSDISLVDYTKEDKTFFGAFLL
notes: TL1A (TNFSF15), human, residues 84-251; first of three units; linker between TL1A units; second unit; third unit; combination mutant in the Fc-scTL1A format; the mutations are written on each of the three TL1A units; source: Expi293 cells, transfected, purified (mAbSelect SuRe); not shown: Fc (IgG1), N-terminal, kept
B2: TL1W329.001 (K111A L123K M158Y Q167A E190F N207F) (Fc fusion, human)
chain: B1 chain with L104S, E107F, L281S, E284F, L458S, E461F
notes: as for B1
B3: TL1W331.001 (K111A L123K Q167A S187L E190F N207F) (Fc fusion, human)
chain: B1 chain with Y75M, E107F, Y252M, E284F, Y429M, E461F
notes: TL1A (TNFSF15), human, residues 84-251; first of three units; linker between TL1A units; second unit; third unit; combination mutant in the Fc-scTL1A format; the mutations are written on each of the three TL1A units; also called Fc-scTL1A-AKALFF; Fc-scTL1A AKALFF; source: Expi293 cells, transfected, purified (mAbSelect SuRe); not shown: Fc (IgG1), N-terminal, kept
B4: TL1W327.001 (K111A L123K M158Y Q167A S187L E190F) (Fc fusion, human)
chain: B1 chain with E107F, F124N, E284F, F301N, E461F, F478N
notes: TL1A (TNFSF15), human, residues 84-251; first of three units; linker between TL1A units; second unit; third unit; combination mutant in the Fc-scTL1A format; the mutations are written on each of the three TL1A units; also called AKYALF190; source: Expi293 cells, transfected, purified (mAbSelect SuRe); not shown: Fc (IgG1), N-terminal, kept
B5: Recombinant DR3-Fc (Fc fusion, UniProt Q93038 25-199, looked up)
chain: QGGTRSPRCDCAGDFHKKIGLFCCRGCPAGHYLKAPCTEPCGNSTCLVCPQDTFLAWENHHNSECARCQACDEQASQVALENCSAVADTRCGCKPGWFVECQVSQCVSSSPFYCQPCLDCGALHRHTRLLCSRRDTDCGTCLPGFYEHGDGCVSCPTSTLGSCPERCAAVCGWRQ
notes: death receptor 3 (DR3); dimeric MW ~92 kDa as printed; the catalogue product is, as I recall, the human extracellular domain fused to human IgG1 Fc; also called death receptor 3; source: bought: R&D Systems, cat. # 943-D3
B6: His-TL1A (TL1W2) (ligand, human, UniProt O95150 1-251, looked up)
chain: VYAPLRADGDKPRAHLTVVRQTPTQHFKNQFPALHWEHELGLAFTKNRMNYTNKFLLIPESGDYFIYSQVTFRGMTSECSEIRQAGRPNKPDSITVVITKVTDSYPEPTQLLMGTKSVCEVGSNWFQPIYLGAMFSLQEGDKLMVNVSDISLVDYTKEDKTFFGAFLL
notes: TL1A (TNFSF15), human; C-terminal extracellular domain comprising the TNF homology domain; non-covalent trimer; also called wild-type TL1A; source: Expi293 cells, transfected, purified (Ni-NTA, preparative gel filtration)
B7: HSA-TL1A (TL1W9) (ligand, human, UniProt O95150 1-251, looked up)
chain: B6 chain
notes: TL1A (TNFSF15), human; C-terminal extracellular domain comprising the TNF homology domain; ratio of HSA to TL1A trimer 3:1; source: Expi293 cells, transfected, purified (Ni-NTA, preparative gel filtration); not shown: HSA (human serum albumin), N-terminal, kept
B8: Fc-TL1A (TL1W3) (Fc fusion, human, UniProt O95150 1-251, looked up)
chain: B6 chain
notes: TL1A (TNFSF15), human; C-terminal extracellular domain comprising the TNF homology domain; 3:2 ratio of Fc:TL1A trimers; also called Fc-TL1A W3; source: Expi293 cells, transfected, purified (mAbSelect SuRe, preparative gel filtration); not shown: Fc (IgG1), N-terminal, kept

Substitutions are numbered along the chain they refer to. Numbers in names are those of the source.

In the data set “Recombinant DR3-Fc” the target is B5. Description: ELISA; DR3-Fc immobilised non-specifically on Maxisorp plates (overnight, 4 °C), casein block; TL1A added in 3-fold dilutions, overnight 4 °C; bound TL1A detected with polyclonal rabbit anti-human TL1A-biotin and streptavidin-HRP; concentrations normalised to TL1A trimers; triplicate. As to conditions: both partners purified. In general terms: An ELISA detects its analyte on a solid surface through an enzyme-linked reagent.

The data set “HSA-TL1A (TL1W9)” concerns the target B7. Description: ELISA; reversed format: TL1A molecules immobilised, DR3 titrated. The note with it: both partners purified.
The data set “Fc-TL1A (TL1W3)” addresses B8. Described as above. The note with it: both partners purified.
In the data set “His-TL1A (TL1W2)” the target is B6. The description is as above. As to conditions: both partners purified.
A further data set deals with T1, DcR3 (TNFRSF6B). As to the kind of experiment: ELISA; TL1A variants on DcR3; who was immobilised is not told for DcR3; triplicate. As to conditions: both partners purified.
Data set [1] concerns the molecule itself. Description: SEC; preparative gel filtration after affinity capture, Sepax SRT-C SEC-300, 20 mM sodium phosphate pH 6.8; the main peak is taken as the target oligomer. For orientation: SEC sorts molecules by how far they enter the pores of the column.

Turning to B1, the EC50 with Recombinant DR3-Fc was 8.8 nM. Same read-out and setting: the same measure for B2: 8.7 nM; for B3: 9 nM. The same measure, in the same setting: as for B4, the figure is 37.5 nM.

As for B5, the EC50 with HSA-TL1A (TL1W9) was above 4000 nM; with Fc-TL1A (TL1W3) it was 2.6 nM; with His-TL1A (TL1W2) it was 2.5 nM. Consider B6, for which the EC50 with Recombinant DR3-Fc was 26.2 nM; in the data set with DcR3 (TNFRSF6B), 4.6 nM. Besides, the “stoichiometry N” value in data set [1] stood at 3. Take B7: the “stoichiometry N” value in data set [1] was determined as 3. B8: the “stoichiometry N” value in data set [1] amounted to 6.
